Source: the supplement of paper PMC9170038

Test system: MS2 coat protein
Test: apparent KD of MS2 coat protein; designed switch direction (-1 OFF switch, 1 ON switch): -1; higher = weaker reporter binding
Summary of the method: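 Transcription of designed RNA switches on Illumina chips was done by stalled E. coli RNA polymerase. SNAP-549-labelled MS2 coat protein was then titrated in doubling steps from 0.7 or 1.5 nM to 3 µM, with steps of 0.8–1.5 h at the lowest and 10–20 min at the highest concentration. The per-design median over clusters of curve-fitted normalised fluorescence is reported as apparent KD.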

[1] = input ligand: microRNA oligo, concentration not stated
[2] = Eterna round: R95, input ligand: microRNA oligo, concentration not stated
[3] = Eterna round: R95, input ligand: FMN 200 uM
[4] = Eterna round: R95, input ligand: none

Sequence	apparent KD of MS2 coat protein (input ligand: FMN 200 uM)	apparent KD of MS2 coat protein [1]	apparent KD of MS2 coat protein (input ligand: none)	apparent KD of MS2 coat protein [2]	apparent KD of MS2 coat protein [3]	apparent KD of MS2 coat protein [4]
UAAUGUGCGAGAGGAUAUCGUGUACAAAGUACACGAGAAGGCUUCACAUGAGGAUCACCCAUGUAUCGAGGUGAAACACCUUGG [Omei Exc(NG)1 Bv2] (Eterna round: R96, puzzle: Exclusion NG 1)	703 nM	285 nM	318 nM			
UCGGCGCGAGGAUAUACGUUUGCUUUUUGGGAUCGUUGCGUACAUGAGGAUCACCCAUGUAGAAGGCGCGCCGC [Apr-15 SS2-26] (puzzle: Exclusion 2)				15.9 nM		
GGUCUGCGAGGAUAUACAUGAGGAUCACCCAUGUGCGAGAUACUAGUGAGGUCGAUUGGUAGAAGGCGCGGACA [Mat - Exclusion 3 - Mod of JL D84] (puzzle: Exclusion 3)				90.4 nM		
UUAAUUAAUUUAUUAGAUCCUCACAUGAGGAUCACCCAUGUGCAGGAUAUCAGCUCGUGUAGAGCUGAGAAGGGCACUAUAAAU [ExNG3/10-B3] (Eterna round: R96, puzzle: Exclusion NG 3)	29.8 nM	61.5 nM	116 nM			
AUAAGGGCAGGAUAUGCAGAAAAGAUUGGCGUGGUCCUGACACAUGAGGAUCACCCAUGUAGAAGGGCCUAGCC [Maquzaar] (Eterna round: R97, puzzle: Exclusion 2)	13.5 nM		14.8 nM			
UGAUCAGACCGAGGAUAUACAUGGAGGACCCACGUGAGUGGGUCCACUACAUGAGGAUCACCCAUGUAGAAGGCGGUCUGAUCU [JL ENG2 1.91] (Eterna round: R96, puzzle: Exclusion NG 2)	1880 nM	91.3 nM	128 nM			
CUGCUCCGUGUAGGAUAUGCGCGCACCCAACGCGCAGAAGGACAUGAGGAUCACCCAUGUAUGUUAUUAUCACGUGAGGCGCAG [Design 34] (Eterna round: R96, puzzle: Exclusion NG 1)	28.8 nM	14.4 nM	17.7 nM			
AGCGGACAAGGAUAUACAUGAGGAUCACCCAUGUACUUAGCAAGUUUGUUUCGUCGAUGUAGAAGGUGUAAUGU [EX3 C.14] (Eterna round: R97, puzzle: Exclusion 3)	19.4 nM		20.2 nM			
GCAGACGUAGUGAGGAUAUGCUCUACCUCGGUAGAGCAGAAGGCACAUGAGGAUCACCCAUGUGGUUCCUCAUC [Omei Ex4B B19] (Eterna round: R97, puzzle: Brourd's mod of Exclusion 4)	54 nM		15.6 nM			
UAAAUGUGAGGAUAUCAGGUGUGCUAGCGUACUGGUACAUCUGAGAAGGCACAUGAGGAUCACCCAUGUUCCUU [Mat - Exclusion 4 - Mod of JL - D49] (puzzle: Exclusion 4)				16.7 nM		
GCUUGUAGAGGAUAUACGAGGGCCCGAGCGGAUAACACCGCACAUGAGGAUCACCCAUGUAGAAGGCUACCACC [Riquinza] (Eterna round: R96, puzzle: Exclusion 2)	331 nM	19.1 nM	27.9 nM			
AAGCAUUGCCAAAGGUAGUGCAAAACAUGAGGAUCACCCAUGUAGGAUAUGGUAGGCAAAGCUUACCAGAAGGACAUGAUAAAU [Mat - Exclusion NG 3 - Mod of JL - D19] (Eterna round: R96, puzzle: Exclusion NG 3)	218 nM	28 nM	42 nM			
UGUUUAUAUGAAGGAUAUACUUAACAUGAGGAUCACCCAUGUGGUGUUGUGAGUGAGUGAGUUUAGUAGAAGGUCAAUUCUUUU [JMF's solution 97] (Eterna round: R96, puzzle: Exclusion NG 2)	996 nM	553 nM	425 nM			
AUCCAACAUGAGGAUCACCCAUGUCAGGAUAUACCCAUCUCCACCUAAUCGGUGGUGGGUAGAAGGGAUAUGUC [EX1 B.10] (Eterna round: R97, puzzle: Exclusion 1)	22.6 nM		18.9 nM			
GCGCGAAGGUAGGAUAUCCGGCGAUCUUCCGUCGGAGAAGGACCCACAUGAGGAUCACCCAUGUGGUGAUCCUG [eternacac ex6r4 sub13] (Eterna round: R97, puzzle: Exclusion 6)	12 nM		23.9 nM			
UUUAAUUUUUUUUUUUUACAAGCUUUUUGCUCGUCUUAUACAUGAGGAUCACCCAUGUGGGUGGGAAGUAAAUUAUC [JMF 56] (puzzle: Sensor v3, turn-off variant 2)				12.6 nM	59 nM	110 nM
AAACCCGCGCGAGGAUAUCACAUGAGGAUCACCCAUGUGGCACUCCGUCACCGGGCAGUCCCGAGUGAGAAGGUGCAGGCGGAA [Entereis] (Eterna round: R96, puzzle: Exclusion NG 2)	27.5 nM	32.4 nM	23.4 nM			

Sequence	apparent KD of MS2 coat protein (input ligand: FMN 200 uM)	apparent KD of MS2 coat protein [1]	apparent KD of MS2 coat protein (input ligand: none)	apparent KD of MS2 coat protein [2]	apparent KD of MS2 coat protein [3]	apparent KD of MS2 coat protein [4]
GUAAUCUUAGGAUAUUUACGGGUCGACAUGAGGAUCACCCAUGUACCCACGUAGGCCUGAGAAGAAGGAAGAUGAC [EX5 C.24] (Eterna round: R97, puzzle: Exclusion 5)	22.1 nM		14.5 nM			
GGAUUUACUGAGGAUAUUGCAUCACCCGACUGAUAAGAAGGCAGAACAUGAGGAUCACCCAUGUGGGUACUCAA [Bingo-Bango-5] (Eterna round: R97, puzzle: Exclusion 6)	95 nM		105 nM			
CCGAGGUAGCGGUCCUAUGACAUGAGGAUCACCCAUGUACCUCGCUACGAGCUUUUUGCUCGUCUUAAAAUUCUCGG [Mat - Sensor v3 - turn-off var 1 - JL Mod - D29] (puzzle: Sensor v3, turn-off variant 1)				156 nM	47 nM	54 nM
UCAUACGAUGAGGAUAUCUCAGUUAAAGUAUUUAGAGAAGGCGUUACAUGAGGAUCACCCAUGUUUAUGGGCAU [Ex-6 Malc#7] (puzzle: Exclusion 6)				121 nM	178 nM	190 nM
CUUCGUUGCAAGGAUAUGUGAACGAAGAGGGAUACAGAAGGUGCUACAUGAGGAUCACCCAUGUGGGUUGAUUU [Eternabot (L1) Solution 48] (Eterna round: R97, puzzle: Exclusion 6)	363 nM		226 nM			
UUUACAAGCUAUAGAUCCCACAUGAGGAUCACCCAUGUUGCUGCCGUGAGGUAGCUUUUAACUAUUGCUCGUCUUAU [JL TOV1 3.36] (Eterna round: R97, puzzle: Sensor, turn-off variant 1)	150 nM		181 nM			
AGAUGGCGAGGAUAUACAUGAGGAUCACCCAUGUGAAGAGAUAAAGUGAGGAAGAAAAGUAGAAGGCGCUGUCA [Mat - Exclusion 3 - Mod of Salish D24] (puzzle: Exclusion 3)				51.4 nM	199 nM	40.9 nM
CGUCAGUCAGGAUAUACUUACGUAGACAUGAGGAUCACCCAUGUGACGUGGGACUGGUGAGUAGAAGGGACGAACA [EX5 #76] (Eterna round: R97, puzzle: Exclusion 5)	27.3 nM		18.1 nM			
GUAGAGUAAGGAUAUCGUGAAUAGGAUAGAAUGGUUAGAAACGAGAAGGUACAUGAGGAUCACCCAUGUAAUGU [Excluse me!!!! 17 - Jieux - Exclusion 4] (puzzle: Exclusion 4)				20.8 nM		
UGAGCUACAGGAUAUAUGUGGCGACCGUGAGGUCGAAGGUUACAUGAGGAUCACCCAUGUAGAAGGGUAGUUCU [Mat - Exclusion 2 - JL Mod - D20] (Eterna round: R97, puzzle: Exclusion 2)	311 nM		284 nM			
AGAAACUCAAGAGGAUAUCACAUGAGGAUCACCCAUGUAUAGCGCGCUAUGCUAGUCCUCGUAUUUGAGAAGGUUUGAAAUAAG [Mat - Exclusion NG 2 - Mod of JL - D79] (Eterna round: R96, puzzle: Exclusion NG 2)	29.8 nM	12.5 nM	18.3 nM			
CUAACAUGCUGGUGAUCAUACAUGAGGAUCACCCAUGUAACAAGCUUUUUGUUCGUCUUAUAAGAUCACCAGCAUGU [Stov1/9-B3] (Eterna round: R97, puzzle: Sensor, turn-off variant 1)	13.8 nM		18.2 nM			
AGCCCUGGCGUCAGGAUAUCGAAACCGCAAAAGGACGAGAAGGGACAUGAGGAUCACCCAUGUAGUGAGUUAAA [Isedrecedi] (puzzle: Brourd's mod of Exclusion 4)				34.5 nM	35.6 nM	39 nM
CAAUAUUAUCGAGGAUAUCCUAUUGUAUUUCAGGGAGAAGGCGGACUCAACAUGAGGAUCACCCAUGUAAGACGGGUACUAGAU [Ex NG1 #19] (Eterna round: R96, puzzle: Exclusion NG 1)	92.2 nM	69.8 nM	89.7 nM			
UUCUUGCGCGUGAGGAUAUGCUGAUCCCAGGAUUAGCAGAAGGCACAUGAGGAUCACCCAUGUCCAACUUGUCU [LRO-BmodExc4-15- Bluer = mod of Colors by Tatyana Zabanova] (Eterna round: R97, puzzle: Brourd's mod of Exclusion 4)	51.4 nM		38.6 nM			
GCCGUAAGUGUGAGGAUAUACCUAUGGAUACAUAGGUAGAAGGCACAUGAGGAUCACCCAUGUUCUCAAUCGGC [Eli BMX r4m5] (Eterna round: R97, puzzle: Brourd's mod of Exclusion 4)	667 nM		125 nM			
